Assay [1] deals with native CLEC-2 on the surface of murine platelets (mouse (endogenous in platelets)) (UniProt Q9JL99).
Assay [2] concerns the target T1, recombinant extracellular domain of human CLEC-2 expressed as a dimeric rabbit immunoglobulin Fc domain … (human, UniProt Q9P126 55-229).
T1 construct: CLEC-2, human, extracellular domain; also called hCLEC-2-rFc2; human CLEC-2-rabbit Fc2; source: recombinant, generated as described previously [2]
Description: SPR; hCLEC-2-rFc2 and control rFc2 amine-coupled to a CM5 chip, Biacore X; S100A13 in modified Tyrode's buffer with 1 mM CaCl2 perfused at 20 uL/min, 25 C; control surface subtracted; Kd by BIAevaluation. The following applies: both partners purified. A general note: Surface plasmon resonance follows binding to a sensor surface in real time, without labels.

T1 sequence (Q9P126 55-229): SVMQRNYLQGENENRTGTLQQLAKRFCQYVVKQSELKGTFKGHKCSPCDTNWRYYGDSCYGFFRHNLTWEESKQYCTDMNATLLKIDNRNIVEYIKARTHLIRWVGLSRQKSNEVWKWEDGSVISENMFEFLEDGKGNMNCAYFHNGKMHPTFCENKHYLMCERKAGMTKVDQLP
Sequence of native CLEC-2 on the surface of murine platelets (mouse (endogenous in platelets)) (Q9JL99 whole entry, the tested form may be a part): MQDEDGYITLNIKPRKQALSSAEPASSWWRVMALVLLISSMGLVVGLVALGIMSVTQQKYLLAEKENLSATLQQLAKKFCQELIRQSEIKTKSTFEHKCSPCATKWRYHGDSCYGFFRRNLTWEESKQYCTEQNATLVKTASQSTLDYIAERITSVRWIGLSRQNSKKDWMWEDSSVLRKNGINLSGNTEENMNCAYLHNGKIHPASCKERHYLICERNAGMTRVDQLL

Take rhodocytin (complex): the release of 5-HT or PDGF from washed murine WT platelets, percent of the total stored, maximum concentration of rhodocytin in assay [1] came to 60%.

B1: GST-tagged S100A13 recombinant protein (natural protein, UniProt Q99584 1-98, looked up)
chain: MAAEPLTELEESIETVVTTFFTFARQEGRKDSLSVNEFKELVTQQLPHLLKDVGSLDEKMKSLDVNQDSELKFNEYWRLIGELAKEIRKKKDLKIRKK
notes: S100A13; also called S100A13-GST; recombinant S100A13-GST; source: bought: CycLex Co., Ltd. (Japan)
As to B1, the Kd in assay [2] stood at 137 nM.

What is called Kd is the free concentration of one partner at which half of the binding sites on the other are occupied at equilibrium, for simple one-to-one binding.
